Experimental data as given in PMC10998858, “Structure and mechanisms of transport of human Asc1/CD98hc amino acid transporter” (Nature Communications, 2024).

Molecular target: T1, human CD98hc (SLC3A2), heavy subunit of the Asc1/CD98hc heterodimer (human, UniProt P08195-2 1-529, N-glycosylation at residues 264, 280, 323 and 405; disulfide bridge from Cys 109 to Cys 154 of Asc1)
T1 construct: CD98hc (SLC3A2), human; residues 61-529 were modelled and the disulfide cysteine is numbered C109, which fits the 529-residue isoform (isoform f is named only for the HeLa construct); also called heavy chain; ancillary subunit; source: HEK293-6E, co-transfected with Asc1, purified as heterodimer in digitonin (Ni-NTA, size exclusion chromatography)
T1 sequence: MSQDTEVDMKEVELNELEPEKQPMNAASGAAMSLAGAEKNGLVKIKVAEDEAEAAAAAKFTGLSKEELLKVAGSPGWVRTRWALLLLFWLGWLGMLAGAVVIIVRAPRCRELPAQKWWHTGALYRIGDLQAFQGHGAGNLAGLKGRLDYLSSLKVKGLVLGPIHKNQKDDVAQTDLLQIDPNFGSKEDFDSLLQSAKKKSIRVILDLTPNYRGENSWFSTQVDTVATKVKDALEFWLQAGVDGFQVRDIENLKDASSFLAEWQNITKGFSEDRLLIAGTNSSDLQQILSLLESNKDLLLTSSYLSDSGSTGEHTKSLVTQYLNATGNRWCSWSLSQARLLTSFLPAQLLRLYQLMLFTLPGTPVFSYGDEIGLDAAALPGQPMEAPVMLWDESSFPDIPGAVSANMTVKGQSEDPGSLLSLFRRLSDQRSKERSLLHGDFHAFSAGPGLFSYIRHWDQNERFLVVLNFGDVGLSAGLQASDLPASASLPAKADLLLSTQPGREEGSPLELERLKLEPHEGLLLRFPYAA
Test: cryo-EM structure; heterodimer co-expressed in HEK293-6E, solubilised in 1% digitonin, purified by Ni-NTA and Superdex200 in 20 mM Tris-HCl pH 8.0, 150 mM NaCl, 0.1% digitonin; 1.2-1.5 mg/ml, 10 mM D-Ser added before vitrification (no ligand density found)
Settings: both partners purified

B1: human Asc1 (SLC7A10), light subunit of the Asc1/CD98hc heterodimer (natural protein)
chain: MAGHTQQPSGRGNPRPAPSPSPVPGTVPGASERVALKKEIGLLSACTIIIGNIIGSGIFISPKGVLEHSGSVGLALFVWVLGGGVTALGSLCYAELGVAIPKSGGDYAYVTEIFGGLAGFLLLWSAVLIMYPTSLAVISMTFSNYVLQPVFPNCIPPTTASRVLSMACLMLLTWVNSSSVRWATRIQDMFTGGKLLALSLIIGVGLLQIFQGHFEELRPSNAFAFWMTPSVGHLALAFLQGSFAFSGWNFLNYVTEEMVDARKNLPRAIFISIPLVTFVYTFTNIAYFTAMSPQELLSSNAVAVTFGEKLLGYFSWVMPVSVALSTFGGINGYLFTYSRLCFSGAREGHLPSLLAMIHVRHCTPIPALLVCCGATAVIMLVGDTYTLINYVSFINYLCYGVTILGLLLLRWRRPALHRPIKVNLLIPVAYLVFWAFLLVFSFISEPMVCGVGVIIILTGVPIFFLGVFWRSKPKCVHRLTESMTHWGQELCFVVYPQDAPEEEENGPCPPSLLPATDKPSKPQ
modifications: disulfide bridge from Cys 154 to Cys 109 of CD98hc
notes: Asc1 (SLC7A10), human; residues 41-489 were modelled in the cryoEM map; The final construct has no GFP; a version with C-terminal eGFP was used only in preliminary trials; also called hAsc1; light chain; source: HEK293-6E, co-transfected with CD98hc, purified as heterodimer in digitonin (Ni-NTA, size exclusion chromatography); not shown: 6xHis, C-terminal, kept
Q: Does B1 bind?
A: Result: binds
